Reference: article PMC4632033

Molecular target: T1, XisR (YdaQ), rac excisionase (Escherichia coli K-12 (BW25113; MS match MG1655)) (UniProt P76057)
T1 sequence: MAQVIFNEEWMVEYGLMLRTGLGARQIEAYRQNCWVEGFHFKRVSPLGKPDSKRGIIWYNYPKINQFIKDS
Assay: EMSA
Conditions: LightShift Chemiluminescent EMSA kit protocol (binding buffer not stated), 25 C, 1 h; 0.5x TBE polyacrylamide gel; protein stored in 20 mM Tris-HCl, 500 mM …

CTATATGCCTTTGATGCGGAGGAATGAATGTGATGGGAGTGATGTATCTGAATAGTTGAAAAACCGCAGTCACGTCGTATGCAAGAACGTGCTGCGGTTGGTTTGACTTTGATTGAGACGTTTTGGAATTTTTTTCGGTGGCAAAAATGGGGCAAAACGCTGCAAAAGGGGCAAAAAAGGGGCAAAAAAAGAGTGGATTATCGTAGCTTATTGTTGTCGCTGATGATATTTAACACATTGAAAAATAAGTAAAATACTTATGAGTCAGAGAGTTGTGATTTTTGCCCTTAC (double strand) [AttM]
binding: no binding

AGATTTCTTATGCTGGGCGTTCCGGCATGACGCATACTCTTCTGATGCCATATAACGAATTGAGTCGCTTTTAAATGTCGCAAAATCAAGAAATTAGTAAGAAAGAACAATACAACCTGAACAAGTAAGGGCAAAAATCACAACTCTCTGACTCATAAGTATTTTACTTATTTTTCAATGTGTTAAATATCATCAGCGACAACAATAAGCTACGATAATCCACTCTTTTTTTGCCCCTTTTTTGCCCCTTTTGCAGCGTTTTGCCCCATTTTTGCCACCGAAAAAAATTCCAAA (double strand) [AttR]
binding: binds
